Test results reported in the supplement of paper PMC10126150.
± gives the standard deviation of the averaged measurements.

Tested on: ATP
Test: switch fluorescence ratio, 500 uM ATP over buffer (Cy3 cluster intensity, sum of 5 cycles each) (fold (ratio)); higher = stronger signal-on switching upon ATP binding; sequences stand for … in TCGTCGGCAGCGTCAGATGTGTATAAGAGACAGTTTTTTTTTTTTTTTTTTTTTTTTT…TC
Conditions: aptamer strand: ATP DNA aptamer (quencher-CACCTGGGGGAGTATTGCGGAGGAAGG + anchor), 100 nM annealed; ATP concentration: 500 uM
In short: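 The quencher-labelled ATP aptamer, at 100 nM, was annealed to Cy3-labelled switching-strand clusters on a modified Illumina MiSeq flow-cell. The clusters were imaged in selection buffer, then after 15 min with 500 uM ATP at 22 °C, and this buffer/ATP cycle ran five times with NaOH stripping and re-annealing between runs. Per-cluster fluorescence ratios, summed target-cycle over summed buffer-cycle Cy3 intensity, were averaged per switch-domain sequence. Clusters outside 100-1000 RFU were excluded.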
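Also: ATP exposure 15 min at 22 °C before imaging.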

ATCGTGGGGA
switch fluorescence ratio: 1.012 ± 0.0075

ATCGTGTGGT
switch fluorescence ratio: 0.9829 ± 0.0092

ATCGTTAAGC
switch fluorescence ratio: 1.03 ± 0.022

ATCGTTCAAT
switch fluorescence ratio: 0.9983 ± 0.0046

ATCGTTTACG
switch fluorescence ratio: 0.994 ± 0.036

ATCGTTTGCA
switch fluorescence ratio: 1.02 ± 0.022

ATCTAATAGG
switch fluorescence ratio: 0.959 ± 0.018

ATCTAGATTG
switch fluorescence ratio: 0.982 ± 0.042

ATCTATATAG
switch fluorescence ratio: 0.9945 ± 0.0068

ATCTATGTTT
switch fluorescence ratio: 0.9872 ± 0.0041

ATCTCAATTT
switch fluorescence ratio: 0.967 ± 0.027

ATCTCTGGTT
switch fluorescence ratio: 0.966 ± 0.031

ATCTGAATGG
switch fluorescence ratio: 1.12 ± 0.17

ATCTGCTCTT
switch fluorescence ratio: 1.01 ± 0.04

ATCTGCTTGA
switch fluorescence ratio: 0.974 ± 0.042

ATCTGGGGTT
switch fluorescence ratio: 1.04 ± 0.015

ATCTGGGTAG
switch fluorescence ratio: 1.01 ± 0.03

ATCTGTATGT
switch fluorescence ratio: 0.968 ± 0.017

ATCTGTGAAC
switch fluorescence ratio: 1.05 ± 0.073

ATCTGTGGGG
switch fluorescence ratio: 0.9962 ± 0.0026

ATCTTAGTAA
switch fluorescence ratio: 0.9998 ± 0.0099

ATCTTAGTTA
switch fluorescence ratio: 0.999 ± 0.026

ATCTTATTTG
switch fluorescence ratio: 1.01 ± 0.033

ATCTTGCGGA
switch fluorescence ratio: 1.02 ± 0.05

ATCTTGGCTG
switch fluorescence ratio: 0.983 ± 0.03

ATCTTTCGAA
switch fluorescence ratio: 1.03 ± 0.026

ATGAAAAAAA
switch fluorescence ratio: 0.976 ± 0.12

ATGAAAACGG
switch fluorescence ratio: 1 ± 0.051

ATGAAAAGTT
switch fluorescence ratio: 0.993 ± 0.011

ATGAAAATTA
switch fluorescence ratio: 0.975 ± 0.025

ATGAAAGCGT
switch fluorescence ratio: 1.032 ± 0.01

ATGAAATAAA
switch fluorescence ratio: 0.9835 ± 0.0022

ATGAAATGTT
switch fluorescence ratio: 1.011 ± 0.0053

ATGAACTCAG
switch fluorescence ratio: 1.03 ± 0.037

ATGAAGAGAT
switch fluorescence ratio: 0.9886 ± 0.0064

ATGAAGGAGC
switch fluorescence ratio: 0.9917 ± 0.0046

ATGAAGGGTT
switch fluorescence ratio: 1 ± 0.029

ATGAATACAA
switch fluorescence ratio: 1.01 ± 0.014

ATGAATGAAC
switch fluorescence ratio: 1.03 ± 0.063

ATGAATTCTC
switch fluorescence ratio: 1.01 ± 0.078

ATGAATTGTT
switch fluorescence ratio: 0.974 ± 0.02

ATGAATTTTA
switch fluorescence ratio: 1 ± 0.031

ATGACCGATT
switch fluorescence ratio: 1.02 ± 0.049

ATGACCTCTT
switch fluorescence ratio: 0.985 ± 0.034

ATGACCTGGG
switch fluorescence ratio: 0.9769 ± 0.0049

ATGACTAAGA
switch fluorescence ratio: 1.006 ± 0.0034

ATGACTGATA
switch fluorescence ratio: 1.028 ± 0.0038

ATGACTTATT
switch fluorescence ratio: 0.968 ± 0.027

ATGAGAAAAG
switch fluorescence ratio: 0.991 ± 0.0095

ATGAGACAGA
switch fluorescence ratio: 0.999 ± 0.049

ATGAGATTTT
switch fluorescence ratio: 0.988 ± 0.015

ATGAGCTGAG
switch fluorescence ratio: 1.01 ± 0.035

ATGAGGGACT
switch fluorescence ratio: 0.9594 ± 0.0036

ATGAGGGG
switch fluorescence ratio: 1.01 ± 0.043

ATGAGGGGGA
switch fluorescence ratio: 0.997 ± 0.026

ATGAGGGGGT
switch fluorescence ratio: 1.03 ± 0.024

ATGAGGGGTA
switch fluorescence ratio: 1.01 ± 0.026

ATGAGGGTTG
switch fluorescence ratio: 1.04 ± 0.013

ATGAGGGTTT
switch fluorescence ratio: 1.01 ± 0.017

ATGAGTCATC
switch fluorescence ratio: 0.981 ± 0.034

ATGAGTGTGT
switch fluorescence ratio: 0.984 ± 0.015

ATGATAAATT
switch fluorescence ratio: 0.963 ± 0.04

ATGATAGTGA
switch fluorescence ratio: 0.991 ± 0.012

ATGATATTGA
switch fluorescence ratio: 0.99 ± 0.011

ATGATATTTC
switch fluorescence ratio: 0.961 ± 0.021

ATGATCTGAG
switch fluorescence ratio: 1.028 ± 0.005

ATGATCTGCT
switch fluorescence ratio: 0.946 ± 0.03

ATGATGAGGT
switch fluorescence ratio: 1 ± 0.017

ATGATGATGG
switch fluorescence ratio: 0.9858 ± 0.0096

ATGATGGATT
switch fluorescence ratio: 1.008 ± 0.0031

ATGATGGG
switch fluorescence ratio: 1.01 ± 0.017

ATGATGGGCT
switch fluorescence ratio: 0.9654 ± 0.0059

ATGATGGTTT
switch fluorescence ratio: 1.02 ± 0.032

ATGATGTTTG
switch fluorescence ratio: 0.981 ± 0.039

ATGATTAACT
switch fluorescence ratio: 0.986 ± 0.036

ATGATTACGC
switch fluorescence ratio: 1.06 ± 0.015

ATGATTAGCT
switch fluorescence ratio: 1.0032 ± 0.00021

ATGATTGGCC
switch fluorescence ratio: 0.9882 ± 0.0086

ATGATTTTGT
switch fluorescence ratio: 1.013 ± 0.01

ATGCAAAGGA
switch fluorescence ratio: 1 ± 0.043

ATGCAATGCT
switch fluorescence ratio: 3.19 ± 0.18

ATGCAATGGC
switch fluorescence ratio: 1.437 ± 0.012

ATGCAGAAAT
switch fluorescence ratio: 1.41 ± 0.83

ATGCAGCATG
switch fluorescence ratio: 1.021 ± 0.0038

ATGCAGGCGG
switch fluorescence ratio: 0.9811 ± 0.001

ATGCAGGTGT
switch fluorescence ratio: 1.23 ± 0.014

ATGCATTACT
switch fluorescence ratio: 1.61 ± 0.11

ATGCATTTTG
switch fluorescence ratio: 0.97 ± 0.03

ATGCCCGTG
switch fluorescence ratio: 0.985 ± 0.014

ATGCCCTTCG
switch fluorescence ratio: 1.04 ± 0.013

ATGCCGAAGG
switch fluorescence ratio: 0.985 ± 0.054

ATGCCGGGGT
switch fluorescence ratio: 1.05 ± 0.013

ATGCCGGGTG
switch fluorescence ratio: 1.07 ± 0.047

ATGCCGGTAT
switch fluorescence ratio: 0.999 ± 0.053

ATGCCGTGGC
switch fluorescence ratio: 1.02 ± 0.033

ATGCCTAGTG
switch fluorescence ratio: 0.994 ± 0.013

ATGCCTGGGT
switch fluorescence ratio: 0.999 ± 0.034

ATGCGAATCG
switch fluorescence ratio: 0.99 ± 0.038

ATGCGCAGGG
switch fluorescence ratio: 1.04 ± 0.051

ATGCGGGCCA
switch fluorescence ratio: 1.012 ± 0.0061

ATGCGGTATG
switch fluorescence ratio: 1 ± 0.0024

ATGCGTACTT
switch fluorescence ratio: 1.01 ± 0.02

ATGCGTGGGG
switch fluorescence ratio: 1.02 ± 0.029

ATGCTAGGGT
switch fluorescence ratio: 0.9905 ± 0.0055

ATGCTATAGT
switch fluorescence ratio: 1.021 ± 0.0025

ATGCTCGGGG
switch fluorescence ratio: 1 ± 0.015

ATGCTGGGTT
switch fluorescence ratio: 0.993 ± 0.048

ATGCTTATAC
switch fluorescence ratio: 2.31 ± 0.36

ATGCTTTGGG
switch fluorescence ratio: 1.036 ± 0.0061

ATGGAAATTG
switch fluorescence ratio: 0.954 ± 0.019

ATGGAACGGT
switch fluorescence ratio: 1.003 ± 0.0053

ATGGAAGGGC
switch fluorescence ratio: 1.01 ± 0.011

ATGGAAGTTT
switch fluorescence ratio: 1.01 ± 0.022

ATGGAATCAG
switch fluorescence ratio: 1.015 ± 0.01

ATGGACAATA
switch fluorescence ratio: 1.07 ± 0.026

ATGGACGGTA
switch fluorescence ratio: 1.105 ± 0.0076

ATGGACGTTT
switch fluorescence ratio: 0.967 ± 0.048

ATGGACTCAA
switch fluorescence ratio: 1.051 ± 0.0073

ATGGAGAACT
switch fluorescence ratio: 0.976 ± 0.024

ATGGAGAGAA
switch fluorescence ratio: 1.01 ± 0.039

ATGGAGCGTG
switch fluorescence ratio: 0.994 ± 0.018

ATGGAGGGGA
switch fluorescence ratio: 1 ± 0.021

ATGGAGTTTG
switch fluorescence ratio: 0.9901 ± 0.0057

ATGGATGGTG
switch fluorescence ratio: 0.96 ± 0.029

ATGGATTGGC
switch fluorescence ratio: 1.08 ± 0.035

ATGGATTGGT
switch fluorescence ratio: 0.984 ± 0.012

ATGGATTTAG
switch fluorescence ratio: 1.014 ± 0.008

ATGGCAAAAG
switch fluorescence ratio: 1.01 ± 0.045

ATGGCAACAT
switch fluorescence ratio: 1.01 ± 0.041

ATGGCAATGT
switch fluorescence ratio: 1.08 ± 0.013

ATGGCACTGG
switch fluorescence ratio: 1.07 ± 0.013

ATGGCAGGCG
switch fluorescence ratio: 0.995 ± 0.04

ATGGCATCGG
switch fluorescence ratio: 1.005 ± 0.0035

ATGGCATGCT
switch fluorescence ratio: 1.02 ± 0.021

ATGGCCCGGC
switch fluorescence ratio: 1.03 ± 0.017

ATGGCGGATG
switch fluorescence ratio: 1.01 ± 0.063

ATGGCGGCGG
switch fluorescence ratio: 1.01 ± 0.014

ATGGCGTGGC
switch fluorescence ratio: 0.986 ± 0.018

ATGGCTTGGA
switch fluorescence ratio: 0.996 ± 0.029

ATGGGAAATC
switch fluorescence ratio: 0.9978 ± 0.0044

ATGGGACAGG
switch fluorescence ratio: 0.999 ± 0.033

ATGGGAGCCA
switch fluorescence ratio: 1 ± 0.028

ATGGGAGCTT
switch fluorescence ratio: 1.01 ± 0.025

ATGGGAGGGA
switch fluorescence ratio: 1.01 ± 0.021

ATGGGCAGGG
switch fluorescence ratio: 0.9931 ± 0.0056

ATGGGCAGGT
switch fluorescence ratio: 0.985 ± 0.02

ATGGGCCCCT
switch fluorescence ratio: 0.987 ± 0.025

ATGGGCGCGC
switch fluorescence ratio: 0.982 ± 0.036

ATGGGCGGGC
switch fluorescence ratio: 1.01 ± 0.03

ATGGGCGTTG
switch fluorescence ratio: 0.9658 ± 0.0037

ATGGGCTTTG
switch fluorescence ratio: 0.9674 ± 0.0093

ATGGGGACCT
switch fluorescence ratio: 1.17 ± 0.17

ATGGGGAGAA
switch fluorescence ratio: 1.01 ± 0.029

ATGGGGAGTT
switch fluorescence ratio: 0.972 ± 0.022

ATGGGGATCG
switch fluorescence ratio: 0.99341 ± 0.00035

ATGGGGATGT
switch fluorescence ratio: 1.03 ± 0.079

ATGGGGGAAT
switch fluorescence ratio: 1.0184 ± 0.00041

ATGGGGGAGT
switch fluorescence ratio: 0.9768 ± 0.0031

ATGGGGGCTA
switch fluorescence ratio: 0.979 ± 0.068

ATGGGGGGCG
switch fluorescence ratio: 1.02 ± 0.053

ATGGGGGGCT
switch fluorescence ratio: 0.987 ± 0.028

ATGGGGGTAT
switch fluorescence ratio: 0.987 ± 0.019

ATGGGGGTTT
switch fluorescence ratio: 0.984 ± 0.042

ATGGGGTCCA
switch fluorescence ratio: 0.976 ± 0.042

ATGGGGTGCT
switch fluorescence ratio: 0.986 ± 0.035

ATGGGGTTCT
switch fluorescence ratio: 0.992 ± 0.022

ATGGGGTTTC
switch fluorescence ratio: 1.01 ± 0.051

ATGGGTGAAG
switch fluorescence ratio: 0.9848 ± 0.0096

ATGGGTGTTG
switch fluorescence ratio: 0.992 ± 0.022

ATGGGTTGGG
switch fluorescence ratio: 0.991 ± 0.017

ATGGGTTGTG
switch fluorescence ratio: 1 ± 0.03

ATGGTAACGT
switch fluorescence ratio: 1.01 ± 0.044

ATGGTAAGGT
switch fluorescence ratio: 1 ± 0.014

ATGGTAGCCG
switch fluorescence ratio: 0.981 ± 0.012

ATGGTAGGTA
switch fluorescence ratio: 1 ± 0.031

ATGGTATGCT
switch fluorescence ratio: 0.992 ± 0.022

ATGGTATTTC
switch fluorescence ratio: 0.9887 ± 0.0013

ATGGTCGAGC
switch fluorescence ratio: 0.9822 ± 0.0076

ATGGTCGATG
switch fluorescence ratio: 0.965 ± 0.02

ATGGTCGGCA
switch fluorescence ratio: 0.985 ± 0.034

ATGGTGAGGC
switch fluorescence ratio: 0.95 ± 0.018

ATGGTGCCCC
switch fluorescence ratio: 1.09 ± 0.049

ATGGTGCTGA
switch fluorescence ratio: 1.01 ± 0.014

ATGGTGTCAG
switch fluorescence ratio: 0.994 ± 0.046

ATGGTGTGAG
switch fluorescence ratio: 1.02 ± 0.016

ATGGTGTGTG
switch fluorescence ratio: 1.01 ± 0.033

ATGGTTAGAT
switch fluorescence ratio: 1.01 ± 0.017

ATGGTTATCT
switch fluorescence ratio: 1.01 ± 0.034

ATGGTTCCCC
switch fluorescence ratio: 1.03 ± 0.013

ATGGTTCGCG
switch fluorescence ratio: 1 ± 0.015

ATGGTTGAGC
switch fluorescence ratio: 1.03 ± 0.024

ATGGTTGCAG
switch fluorescence ratio: 0.9553 ± 0.004

ATGGTTGGAC
switch fluorescence ratio: 0.9925 ± 0.0094

ATGGTTGGGG
switch fluorescence ratio: 0.994 ± 0.031

ATGGTTTGAG
switch fluorescence ratio: 0.997 ± 0.026

ATGGTTTTGC
switch fluorescence ratio: 0.977 ± 0.029

ATGGTTTTTG
switch fluorescence ratio: 1.01 ± 0.013

ATGTAAAAAC
switch fluorescence ratio: 0.965 ± 0.029

ATGTAAAATG
switch fluorescence ratio: 1.04 ± 0.066

ATGTAAAGTC
switch fluorescence ratio: 1.018 ± 0.0031
